Starred links: 1 amine or outer side, 2 acyl side, 3 side chain; linkers in the order of their positions; H or OH if unused. Positions of bridges follow the written chain, without caps; N, C: chain ends. Non-standard residues stand in square brackets, D forms with d. Primed or numbered codes have the meaning given here. ξ: configuration not given here. *: point of attachment. Ttds = 1,13-diamino-4,7,10-trioxatridecan-succinamic acid spacer, NCCCOCCOCCOCCCNC(=O)CCC(=O)*; APAc″ = 2-(4-(amino)piperidin-1-yl)acetic acid, NC1CCN(CC(=O)*)CC1; DOTA = O=C(O)CN1CCN(CC(=O)O)CCN(CC(=O)*)CCN(CC(=O)O)CC1; Trp(5-Cl) = N[C@@H](Cc1c[nH]c2ccc(Cl)cc12)C(=O)O; ξTrp(5-Me) = Cc1ccc2[nH]cc(CC(N)C(=O)O)c2c1; Ttds(3) = NCCCOCCOCCOCCCNC(=O)CCC(=O)*; mXylylene = c1cc(C[*:1])cc(C[*:2])c1; Hydrocinnamoyl = O=C(CCc1ccccc1)*; tBuAla = CC(C)(C)C[C@H](N)C(=O)O; Pen = CC(C)(S)[C@H](N)C(=O)O; Propanoyl(3-OH) = O=C(CCO)*; Isovaleryl = CC(C)CC(=O)*; dPip = O=C(O)[C@H]1CCCCN1; Nle = CCCC[C@H](N)C(=O)O; 4Amc = not defined here; Bz′ = not defined here; Hexanoyl = CCCCCC(=O)*; PhAc = O=C(Cc1ccccc1)*; AEEA = NCCOCCOCC(=O)O; Aib = CC(C)(N)C(=O)O; Sar = CNCC(=O)O

The chains are these.
B1: 3BP-3858 (peptide)
peptide: {DOTA-APAc″}-CE[dP]DWLTWSC-NH2
modifications: linker 1-10 via mXylylene
notes: also called DOTA-APAc-[Cys(3MeBn)-Glu-pro-Asp-Trp-Leu-Thr-Trp-Ser-Cys]-NH2
B2: 3BP-3289 (peptide)
peptide: Ac-VYCE[Sar]D[Trp(5-Cl)]LTWQC-NH2
modifications: linker 3-12 via mXylylene
SMILES: CC(=O)N[C@H](C(=O)N[C@@H](Cc1ccc(O)cc1)C(=O)N[C@H]1CSCc2cccc(c2)CSC[C@@H](C(N)=O)NC(=O)[C@H](CCC(N)=O)NC(=O)[C@H](Cc2c[nH]c3ccccc23)NC(=O)[C@H]([C@@H](C)O)NC(=O)[C@H](CC(C)C)NC(=O)[C@H](Cc2c[nH]c3ccc(Cl)cc23)NC(=O)[C@H](CC(=O)O)NC(=O)CN(C)C(=O)[C@H](CCC(=O)O)NC1=O)C(C)C
notes: also called Ac-Val-Tyr-[Cys(3MeBn)-Glu-Nmg-Asp-5Clw-Leu-Thr-Trp-Gln-Cys]-NH2
B3: 3BP-3283 (peptide)
peptide: Ac-VYCE[dPip]DWLTWAC-NH2
modifications: linker 3-12 via mXylylene
SMILES: CC(=O)N[C@H](C(=O)N[C@@H](Cc1ccc(O)cc1)C(=O)N[C@H]1CSCc2cccc(c2)CSC[C@@H](C(N)=O)NC(=O)[C@H](C)NC(=O)[C@H](Cc2c[nH]c3ccccc23)NC(=O)[C@H]([C@@H](C)O)NC(=O)[C@H](CC(C)C)NC(=O)[C@H](Cc2c[nH]c3ccccc23)NC(=O)[C@H](CC(=O)O)NC(=O)[C@H]2CCCCN2C(=O)[C@H](CCC(=O)O)NC1=O)C(C)C
notes: also called Ac-Val-Tyr-[Cys(3MeBn)-Glu-pip-Asp-Trp-Leu-Thr-Trp-Ala-Cys]-NH2
B4: 3BP-3059 (peptide)
peptide: Ac-VYCE[Aib]DWLTWQC-NH2
modifications: linker 3-12 via mXylylene
SMILES: CC(=O)N[C@H](C(=O)N[C@@H](Cc1ccc(O)cc1)C(=O)N[C@H]1CSCc2cccc(c2)CSC[C@@H](C(N)=O)NC(=O)[C@H](CCC(N)=O)NC(=O)[C@H](Cc2c[nH]c3ccccc23)NC(=O)[C@H]([C@@H](C)O)NC(=O)[C@H](CC(C)C)NC(=O)[C@H](Cc2c[nH]c3ccccc23)NC(=O)[C@H](CC(=O)O)NC(=O)C(C)(C)NC(=O)[C@H](CCC(=O)O)NC1=O)C(C)C
notes: also called Ac-Val-Tyr-[Cys(3MeBn)-Glu-Aib-Asp-Trp-Leu-Thr-Trp-Gln-Cys]-NH2
B5: 3BP-3290 (peptide)
peptide: Ac-VYCE[Sar]D[ξTrp(5-Me)]LTWQC-NH2
modifications: linker 3-12 via mXylylene; not fully specified; also: position 7 is DL-5-methyltryptophan, configuration not given here
notes: also called Ac-Val-Tyr-[Cys(3MeBn)-Glu-Nmg-Asp-Egc-Leu-Thr-Trp-Gln-Cys]-NH2
B6: 3BP-3869 (peptide)
peptide: {DOTA-AEEA}-YCE[dP]DWLTWSC-NH2
modifications: linker 2-11 via mXylylene
SMILES: CC(C)C[C@@H]1NC(=O)[C@H](Cc2c[nH]c3ccccc23)NC(=O)[C@H](CC(=O)O)NC(=O)[C@H]2CCCN2C(=O)[C@H](CCC(=O)O)NC(=O)[C@@H](NC(=O)[C@H](Cc2ccc(O)cc2)NC(=O)COCCOCCNC(=O)CN2CCN(CC(=O)O)CCN(CC(=O)O)CCN(CC(=O)O)CC2)CSCc2cccc(c2)CSC[C@@H](C(N)=O)NC(=O)[C@H](CO)NC(=O)[C@H](Cc2c[nH]c3ccccc23)NC(=O)[C@H]([C@@H](C)O)NC1=O
notes: also called DOTA-O2Oc-Tyr-[Cys(3MeBn)-Glu-pro-Asp-Trp-Leu-Thr-Trp-Ser-Cys]-NH2
B7: 3BP-3109 (peptide)
peptide: PhAc-VYCEGDWLTWQC-NH2
modifications: linker 3-12 via mXylylene
SMILES: CC(C)C[C@@H]1NC(=O)[C@H](Cc2c[nH]c3ccccc23)NC(=O)[C@H](CC(=O)O)NC(=O)CNC(=O)[C@H](CCC(=O)O)NC(=O)[C@@H](NC(=O)[C@H](Cc2ccc(O)cc2)NC(=O)[C@@H](NC(=O)Cc2ccccc2)C(C)C)CSCc2cccc(c2)CSC[C@@H](C(N)=O)NC(=O)[C@H](CCC(N)=O)NC(=O)[C@H](Cc2c[nH]c3ccccc23)NC(=O)[C@H]([C@@H](C)O)NC1=O
B8: 3BP-3859 (peptide)
peptide: {DOTA}-YCE[dP]DWLTWSC-NH2
modifications: linker 2-11 via mXylylene
SMILES: CC(C)C[C@@H]1NC(=O)[C@H](Cc2c[nH]c3ccccc23)NC(=O)[C@H](CC(=O)O)NC(=O)[C@H]2CCCN2C(=O)[C@H](CCC(=O)O)NC(=O)[C@@H](NC(=O)[C@H](Cc2ccc(O)cc2)NC(=O)CN2CCN(CC(=O)O)CCN(CC(=O)O)CCN(CC(=O)O)CC2)CSCc2cccc(c2)CSC[C@@H](C(N)=O)NC(=O)[C@H](CO)NC(=O)[C@H](Cc2c[nH]c3ccccc23)NC(=O)[C@H]([C@@H](C)O)NC1=O
notes: also called DOTA-Tyr-[Cys(3MeBn)-Glu-pro-Asp-Trp-Leu-Thr-Trp-Ser-Cys]-NH2
B9: 3BP-3107 (peptide)
peptide: Hexanoyl-VYCEGDWLTWQC-NH2
modifications: linker 3-12 via mXylylene
SMILES: CCCCCC(=O)N[C@H](C(=O)N[C@@H](Cc1ccc(O)cc1)C(=O)N[C@H]1CSCc2cccc(c2)CSC[C@@H](C(N)=O)NC(=O)[C@H](CCC(N)=O)NC(=O)[C@H](Cc2c[nH]c3ccccc23)NC(=O)[C@H]([C@@H](C)O)NC(=O)[C@H](CC(C)C)NC(=O)[C@H](Cc2c[nH]c3ccccc23)NC(=O)[C@H](CC(=O)O)NC(=O)CNC(=O)[C@H](CCC(=O)O)NC1=O)C(C)C
B10: 3BP-3110 (peptide)
peptide: Hydrocinnamoyl-VYCEGDWLTWQC-NH2
modifications: linker 3-12 via mXylylene
SMILES: CC(C)C[C@@H]1NC(=O)[C@H](Cc2c[nH]c3ccccc23)NC(=O)[C@H](CC(=O)O)NC(=O)CNC(=O)[C@H](CCC(=O)O)NC(=O)[C@@H](NC(=O)[C@H](Cc2ccc(O)cc2)NC(=O)[C@@H](NC(=O)CCc2ccccc2)C(C)C)CSCc2cccc(c2)CSC[C@@H](C(N)=O)NC(=O)[C@H](CCC(N)=O)NC(=O)[C@H](Cc2c[nH]c3ccccc23)NC(=O)[C@H]([C@@H](C)O)NC1=O
B11: 3BP-3064 (peptide)
peptide: Ac-VYCEGDWLTWQ[Pen]-NH2
modifications: linker 3-12 via mXylylene
SMILES: CC(=O)N[C@H](C(=O)N[C@@H](Cc1ccc(O)cc1)C(=O)N[C@H]1CSCc2cccc(c2)CSC(C)(C)[C@@H](C(N)=O)NC(=O)[C@H](CCC(N)=O)NC(=O)[C@H](Cc2c[nH]c3ccccc23)NC(=O)[C@H]([C@@H](C)O)NC(=O)[C@H](CC(C)C)NC(=O)[C@H](Cc2c[nH]c3ccccc23)NC(=O)[C@H](CC(=O)O)NC(=O)CNC(=O)[C@H](CCC(=O)O)NC1=O)C(C)C
B12: 3BP-3060 (peptide)
peptide: Ac-VYCE[Sar]DWLTWQC-NH2
modifications: linker 3-12 via mXylylene
SMILES: CC(=O)N[C@H](C(=O)N[C@@H](Cc1ccc(O)cc1)C(=O)N[C@H]1CSCc2cccc(c2)CSC[C@@H](C(N)=O)NC(=O)[C@H](CCC(N)=O)NC(=O)[C@H](Cc2c[nH]c3ccccc23)NC(=O)[C@H]([C@@H](C)O)NC(=O)[C@H](CC(C)C)NC(=O)[C@H](Cc2c[nH]c3ccccc23)NC(=O)[C@H](CC(=O)O)NC(=O)CN(C)C(=O)[C@H](CCC(=O)O)NC1=O)C(C)C
notes: also called Ac-Val-Tyr-[Cys(3MeBn)-Glu-Nmg-Asp-Trp-Leu-Thr-Trp-Gln-Cys]-NH2
B13: 3BP-3730 (peptide)
peptide: {Propanoyl(3-OH)}-YCE[dP]DWLTWSC-NH2
modifications: linker 2-11 via 3MeBn
notes: also called 3OHPr-Tyr-[Cys(3MeBn)-Glu-pro-Asp-Trp-Leu-Thr-Trp-Ser-Cys]-NH2
B14: 3BP-3065 (peptide)
peptide: Ac-VYCEGDW[tBuAla]TWQC-NH2
modifications: linker 3-12 via mXylylene
SMILES: CC(=O)N[C@H](C(=O)N[C@@H](Cc1ccc(O)cc1)C(=O)N[C@H]1CSCc2cccc(c2)CSC[C@@H](C(N)=O)NC(=O)[C@H](CCC(N)=O)NC(=O)[C@H](Cc2c[nH]c3ccccc23)NC(=O)[C@H]([C@@H](C)O)NC(=O)[C@H](CC(C)(C)C)NC(=O)[C@H](Cc2c[nH]c3ccccc23)NC(=O)[C@H](CC(=O)O)NC(=O)CNC(=O)[C@H](CCC(=O)O)NC1=O)C(C)C
notes: also called Ac-Val-Tyr-[Cys(3MeBn)-Glu-Gly-Asp-Trp-Npg-Thr-Trp-Gln-Cys]-NH2
B15: 3BP-3868 (peptide)
peptide: {DOTA-4Amc}-YCE[dP]DWLTWSC-NH2
modifications: linker 2-11 via mXylylene; reading uncertain
notes: also called DOTA-4Amc-Tyr-[Cys(3MeBn)-Glu-pro-Asp-Trp-Leu-Thr-Trp-Ser-Cys]-NH2
B16: 3BP-3867 (peptide)
peptide: {DOTA-APAc″}-YCE[dP]DWLTWSC-NH2
modifications: linker 2-11 via mXylylene
notes: also called DOTA-APAc-Tyr-[Cys(3MeBn)-Glu-pro-Asp-Trp-Leu-Thr-Trp-Ser-Cys]-NH2
B17: 3BP-3271 (peptide)
peptide: {DOTA-Ttds(3)}-VYCE[Sar]DWLTWQC-NH2
modifications: linker 3-12 via mXylylene
notes: also called DOTA-Ttds-Val-Tyr-[Cys(3MeBn)-Glu-Nmg-Asp-Trp-Leu-Thr-Trp-Gln-Cys]-NH2
B18: 3BP-3111 (peptide)
peptide: Isovaleryl-VYCEGDWLTWQC-NH2
modifications: linker 3-12 via mXylylene
SMILES: CC(C)CC(=O)N[C@H](C(=O)N[C@@H](Cc1ccc(O)cc1)C(=O)N[C@H]1CSCc2cccc(c2)CSC[C@@H](C(N)=O)NC(=O)[C@H](CCC(N)=O)NC(=O)[C@H](Cc2c[nH]c3ccccc23)NC(=O)[C@H]([C@@H](C)O)NC(=O)[C@H](CC(C)C)NC(=O)[C@H](Cc2c[nH]c3ccccc23)NC(=O)[C@H](CC(=O)O)NC(=O)CNC(=O)[C@H](CCC(=O)O)NC1=O)C(C)C
B19: 3BP-3870 (peptide)
peptide: {DOTA-Ttds(3)}-[Nle]YCE[dP]DWLTWSC-NH2
modifications: linker 3-12 via mXylylene
notes: also called DOTA-Ttds-Nle-Tyr-[Cys(3MeBn)-Glu-pro-Asp-Trp-Leu-Thr-Trp-Ser-Cys]-NH2

In the experiment the target is human carbonic anhydrase 9 (CAIX) (human, UniProt Q16790 38-459). Briefly: FACS competition on HT-29 cells against tracer 3BP-2776; pIC50 category A = pIC50 >8.0.
In turn, B1 came in with a pIC50 of over 8 pic50. Consider B2, for which the pIC50 is over 8 pic50.

As to B3, the pIC50 is over 8 pic50.

Molecule B4 gave a pIC50 of over 8 pic50.

In turn, {Bz′}-VYCEGDWLTWQC-NH2 (linker 3-12 via mXylylene) [3BP-3108] registered a pIC50 of over 8 pic50. B5: the pIC50 was over 8 pic50. B6 registered a pIC50 of over 8 pic50. Regarding B7, the pIC50 was over 8 pic50. B8 showed a pIC50 of over 8 pic50. In turn, B9 showed a pIC50 of over 8 pic50. In the case of B10 it was over 8 pic50. In the case of {DOTA-Ttds}-VYCEGDWLTWQC-NH2 (linker 3-12 via mXylylene) [3BP-2959] it was over 8 pic50. B11 displayed a pIC50 of over 8 pic50. Molecule B12 registered a pIC50 of over 8 pic50. The molecule B13 showed a pIC50 of over 8 pic50.

Turning to B14, the pIC50 was over 8 pic50. With B15, the pIC50 is over 8 pic50. B16 yielded a pIC50 of over 8 pic50. The value for B17 was over 8 pic50; that for B18 was over 8 pic50; that for B19 was over 8 pic50.

The record behind these values is patent US20250339569A1 (3B PHARMACEUTICALS, published 2025).
